Measured values as given in PMC4992311, “The MarR-like protein PchR (YvmB) regulates expression of genes involved in pulcherriminic acid biosynthesis and in the initiation of sporulation in Bacillus subtilis”.
Blank lines part the entries; values can stand above or below the molecule they belong to.

Tests used:
[1] = molecular target: His-tagged YvmB protein (MarR-like regulator YvmB, renamed PchR) (B. subtilis); experiment: SEC; purified YvmB^His-tag fractionated on a Superdex 200 gel-filtration column; major peak with an apparent molecular mass compared with the 19.2 kDa polypeptide; no effector added
[2] = molecular target: T1, YvmB-His6 (PchR) (Bacillus subtilis (BSB1, trp+ 168 derivative?)) (UniProt P40762); experiment: EMSA; conditions: apparent Kd; EMSA: 1x = 20 mM Tris pH 8, 100 mM KCl, 0.5 mM DTT, 5 mM MgCl2, 0.05 mg/ml BSA, 0.05 mg/ml poly(dIdC) (from 5x buffer); 50 ng Cy5 DNA in 20 uL; 20 min at 30 C …
T1 sequence: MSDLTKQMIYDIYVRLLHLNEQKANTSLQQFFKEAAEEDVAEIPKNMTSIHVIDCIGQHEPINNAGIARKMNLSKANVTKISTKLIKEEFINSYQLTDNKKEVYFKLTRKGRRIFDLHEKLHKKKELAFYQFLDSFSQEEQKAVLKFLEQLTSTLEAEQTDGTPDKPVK

[3] = molecular target: T2, YvmB-His6 (PchR) (Bacillus subtilis (BSB1, trp+ 168 …, UniProt P40762 1-169)); experiment: EMSA; one complex; apparent Kd; EMSA: 1x = 20 mM Tris pH 8, 100 mM KCl, 0.5 mM DTT, 5 mM MgCl2, 0.05 mg/ml BSA, 0.05 mg/ml poly(dIdC) (from 5x buffer); 50 ng Cy5 DNA in 20 uL; 20 min at 30 C; conditions: protein: recombinant; tags: C-terminal His6; chain copies: 2; label: 5' Cy5
T2 sequence: T1 sequence

[4] = molecular target: T2, YvmB-His6 (PchR); experiment: EMSA; two complexes; EMSA: 1x = 20 mM Tris pH 8, 100 mM KCl, 0.5 mM DTT, 5 mM MgCl2, 0.05 mg/ml BSA, 0.05 mg/ml poly(dIdC) (from 5x buffer); 50 ng Cy5 DNA in 20 uL; 20 min at 30 C; conditions: protein: recombinant; tags: C-terminal His6; chain copies: 2; label: 5' Cy5

- stoichiometry N [1]: 2
Molecule: His-tagged YvmB protein (MarR-like regulator YvmB, renamed PchR) (natural protein)

Molecule: P-yisI probe
- Kd [2]: 2.5 nM

B1: P1 probe (yvmB-yvmC intergenic, palindrome I) (dsDNA)
DNA 1: TTCCAAATGTTTTTTAAGATTTTAATAATCATTTTCAATACCCATATCATGATAAATGTTTACTAGTAAACATTAGTCATTTTATCCCTTTTCCTTCCAAACGTCAATAT
DNA 2: ATATTGACGTTTGGAAGGAAAAGGGATAAAATGACTAATGTTTACTAGTAAACATTTATCATGATATGGGTATTGAAAATGATTATTAAAATCTTAAAAAACATTTGGAA
- Kd [3]: 5 nM

B2: P2 probe (yvmB-yvmC intergenic, palindrome II) (dsDNA)
DNA 1: CCAACAATTGACAACGAAAACAAGAAAAGATAAAATAAAATTGTTCACCAGTAAACGATTTGTTTTATTGTTTCATCGTAAACTATTATTCCTAAGAAAGAAGGTAGCCT
DNA 2: AGGCTACCTTCTTTCTTAGGAATAATAGTTTACGATGAAACAATAAAACAAATCGTTTACTGGTGAACAATTTTATTTTATCTTTTCTTGTTTTCGTTGTCAATTGTTGG
- binding result [4]: binds
